Test results: patent US20240325557A1, “TREATMENT OF CANCER” (INNATE PHARMA, priority 2020, published 2024)
“Also recorded” adds a separate entry of the source.

Legend:
[1] = biological target: T1, Hu-Nectin4 IgC1C2-V5 (modified Nectin-4 lacking the Ig-like V domain, C1C2 construct) (Homo sapiens, UniProt Q96NY8); test: Flow cytometry binding to cells expressing the Nectin-4 C1C2 construct
T1 construct: expressed in transfected cells; host or cells: CHO
T1 sequence (Q96NY8 148-510): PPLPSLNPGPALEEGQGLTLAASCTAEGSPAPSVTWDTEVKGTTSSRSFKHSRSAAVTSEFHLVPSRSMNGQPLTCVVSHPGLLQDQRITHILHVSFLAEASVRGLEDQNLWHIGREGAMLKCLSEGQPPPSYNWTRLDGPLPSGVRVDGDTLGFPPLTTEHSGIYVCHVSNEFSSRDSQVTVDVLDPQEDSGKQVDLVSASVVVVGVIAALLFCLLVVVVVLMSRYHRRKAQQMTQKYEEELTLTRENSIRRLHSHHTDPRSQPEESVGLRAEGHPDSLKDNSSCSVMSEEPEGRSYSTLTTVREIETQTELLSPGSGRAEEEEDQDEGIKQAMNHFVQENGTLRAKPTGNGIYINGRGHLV
Procedure: The characterization of the binding of the antibodies on Nectin-4 domains was performed by flow cytometry using cells made to express the wild-type human Nectin-4 protein and cells made to express a modified Nectin-4 having the Ig-like C2 type 1 and the Ig-like C2 type 2 domains and lacking the Ig-like V domain (the C1C2 construct). The latter protein additionally bears a V5 tag for flow cytometry cell sorting, and cells were used as Nectin4-C1C2-V5 sorted cells.
Wild-type Nectin-4 (the CI.3C8 cell line), a C2 construct (containing the Ig-like C2 type 2 domain and lacking both the V and the C1 domains) and the C1C2 construct allow the determination of whether test antibodies bind to the V or different C domains. Briefly, nucleic acid sequences encoding different human Nectin-4 domains were amplified by PCR. The PCR products were inserted into an expression vector at appropriate restriction sites. A leader peptide, and for C1C2 and C2 an N-terminal V5 tag having the amino acid sequence […] (SEQ ID NO: 41), were added, and expression at the surface of cells was confirmed by flow cytometry. The amino acid sequences of the resulting different human Nectin-4 domain fragment-containing proteins are shown below (V5 tag underlined). The vectors were then transfected into the CHO cell line to obtain stable clones expressing the different Nectin-4 domain proteins at the cell surface.

[2] = biological target: T2, wild-type human Nectin-4 protein (huNectin4-his-BirA) (Homo sapiens, UniProt Q96NY8); test: Affinity determination by SPR (Biacore T200); type: binding; conditions: 25° C.
T2 sequence (Q96NY8 with tags, fused parts or gaps): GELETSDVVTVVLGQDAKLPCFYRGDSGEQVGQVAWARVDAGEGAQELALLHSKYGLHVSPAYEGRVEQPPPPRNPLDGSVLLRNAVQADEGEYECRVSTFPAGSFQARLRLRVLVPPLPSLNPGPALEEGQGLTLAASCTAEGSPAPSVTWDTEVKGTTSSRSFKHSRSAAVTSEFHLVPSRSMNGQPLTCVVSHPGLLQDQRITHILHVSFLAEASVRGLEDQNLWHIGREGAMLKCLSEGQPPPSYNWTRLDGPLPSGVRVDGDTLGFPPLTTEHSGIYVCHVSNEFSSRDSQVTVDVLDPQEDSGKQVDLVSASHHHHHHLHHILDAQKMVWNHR
Procedure: Antibodies were tested for binding affinity to the wild-type human Nectin-4 protein by SPR (Surface Plasmon Resonance) methods. Measurements were performed on a Biacore T200 apparatus (Biacore GE Healthcare) at 25° C. Sensorgrams were analyzed with Biacore T100 Evaluation software. A CMR Sensor Chip with immobilized Protein A at about 600 RU was used. Anti-Nectin-4 antibodies were captured onto the Protein-A chip (antibodies diluted to 1 μg/ml in HBS-EP+1× buffer and injected over 120s at 40 μL/min). Recombinant human monomeric huNectin4-his-BirA protein was injected at different concentrations in a range from 100 nM to 1.56 nM over captured antibodies (HuNectin4-His-BirA diluted in HBS-EP+1× in ½ dilutions, injected over 120s at 40 μl/min) and allowed to dissociate for 600s. The chip was regenerated with NaOh 10 mM 2× for 30s at 40 μl/min. The sensorgram sets were fitted using the 1:1 kinetic binding model or two state reaction model, as a function of the profile of the curves.

[3] = test system: Nectin-4 Mutant 5 (A158P/E160G/S243A/F244S); test: Binding to cell surface expressed Nectin-4 point mutant; parameters: species or system human; conditions: HEK-293T; results irrelevant, due to an absence of expression of said protein
Source text: Combined with the published structures of the Nectin-4 domains, Nectin-4 mutations at surface exposed amino acids residues were designed. Nectin-4 domain structure was modelled based on Protein Data Bank reference: 4FRW (domains V et C1). Human Nectin-4 used was NCBI Reference Sequence: NP_112178.2, mouse Nectin-4 used was NCBI Reference Sequence: AAL79833.1, cynomolgus Nectin-4 used was NCBI Reference Sequence: XP_005541277.1, rat Nectin-4 used was NCBI Reference Sequence: NP_001102546.1. The cells expressing the Nectin-4 mutants are then be used for testing anti-Nectin-4 antibodies for loss of binding to different Nectin-4 mutants to identify antibodies that bind to the same site on Nectin-4. […] FIGS. 12A and 12B show a molecular model of the human Nectin-4 protein, indicating the position of substituted residues in mutants 7 (12A) and in mutants 7bis (12B); these mutants are in the C1 domain identify two sites at the junction of domain C1 and V domain that are on opposing faces of the Nectin-4 protein.
Nectin-4 mutants were generated by PCR. The sequences amplified were run on agarose gel and purified using the Macherey Nagel PCR Clean-Up Gel Extraction kit. The purified PCR products generated for each mutant were then ligated into an expression vector, with the ClonTech InFusion system. The vectors containing the mutated sequences were prepared as Miniprep and sequenced. After sequencing, the vectors containing the mutated sequences were prepared as Midiprep using the Promega PureYield™ Plasmid Midiprep System. HEK293T cells were grown in DMEM medium (Invitrogen), transfected with vectors using Invitrogen's Lipofectamine 2000 and incubated at 37° C. in a CO2 incubator for 48 hours prior to testing for transgene expression. The targeted amino acid mutations are shown in Table 2 below, listing the residue present in wild-type Nectin-4/position of residue/residue present in mutant Nectin-4, with position reference being to the Nectin-4 protein with leader peptide shown in SEQ ID NO: 1.

B1: N41 (antibody, V domains shown)
VH: QVQLKQSGPGLVQPSQSLSITCTVSGFSLTNYGVHWVRQSPGKGLEWLGVIWSGGSTDYNAAFISRLSISKDTSKSQVFFKMNSLQADDTAIYYCARELIHAMDNWGQGTSVTVSS
VL: DIQMTQSPASLSVSVGETVTITCRASENIYSNLAWYQQKQGNSPQLLVFAATNLADGVPSRFSGSGSGTQYSLKINSLQSEDFGTYYCQHFWGTPTFGGGTKLEIK
binding to the C1C2 construct [1]: lost all binding to the C1C2 construct | ka [2]: 580000 M⁻¹ s⁻¹ | kd [2]: 0.00087 s⁻¹ | association with Nectin-4 Mutant 5 [3]: −

B2: 5E7 (antibody, V domains shown)
VH: QVQLQQPGAELVKPGASVKLSCKASGYIFTSYWMHWVKQRPGQGLEWIGEIDPSDSYTNYNQKFKGKATLTLDKSSSTTYMQLSSLTSEDSAVYYCVRGYGNYGDYWGQGTTLTVSS
VL: DVVMTQAAFSNPVTLGTSASISCRSSKSLLHSNGITYLYWYLQKPGQSPQLLIYQMSNLASGVPDRFSSSGSGTDFTLRISRVEAEDVGVYYCAQNLELPWTFGGGTKLEIK
binding to the C1C2 construct [1]: partial loss of binding to the C1C2 construct; also recorded: retain binding to the C1C2 construct | ka [2]: 620000 M⁻¹ s⁻¹ | kd [2]: 0.003 s⁻¹ | association with Nectin-4 Mutant 5 [3]: −

B3: 10B12: anti-Nectin-4 antibody, VH SEQ ID NO: 24, VL SEQ ID NO: 25, binds junction of domain C1 and V (antibody, listed as Mus musculus, V domains shown)
VH: QVQLQQPGAELVKPGASVKLSCKASGYTFTSYWMHWVKQRPGQGLEWIGEIDPSDSYTNYNQKFKGKATLTVDKSSSTAYMQLSSLTSEDSAVYYCVRGYGNYGDYWGQGTTLTVSS
VL: DIVMTQAAFSNPVTLGTSASISCRSSKSLLHSNGITYLYWYLQKPGQSPQLLIYQMSNLASGVPDRFSSSGSGTDFTLRISRVEAEDVGVYYCAQNLELPWTFGGGTKLEIK
binding to the C1C2 construct [1]: partial loss of binding to the C1C2 construct; also recorded: retain binding to the C1C2 construct | ka [2]: 860000 M⁻¹ s⁻¹ | kd [2]: 0.01 s⁻¹ | association with Nectin-4 Mutant 5 [3]: −
